From patent US20180344829A1 (INNATE PHARMA, published 2018)

T1: human Siglec-10 expressed on CHO cells (human, UniProt Q96LC7 17-697)
T1 construct: NCBI NP_149121 is printed; also called huSiglec-10; Siglec-10 CHO transfectants
T1 sequence: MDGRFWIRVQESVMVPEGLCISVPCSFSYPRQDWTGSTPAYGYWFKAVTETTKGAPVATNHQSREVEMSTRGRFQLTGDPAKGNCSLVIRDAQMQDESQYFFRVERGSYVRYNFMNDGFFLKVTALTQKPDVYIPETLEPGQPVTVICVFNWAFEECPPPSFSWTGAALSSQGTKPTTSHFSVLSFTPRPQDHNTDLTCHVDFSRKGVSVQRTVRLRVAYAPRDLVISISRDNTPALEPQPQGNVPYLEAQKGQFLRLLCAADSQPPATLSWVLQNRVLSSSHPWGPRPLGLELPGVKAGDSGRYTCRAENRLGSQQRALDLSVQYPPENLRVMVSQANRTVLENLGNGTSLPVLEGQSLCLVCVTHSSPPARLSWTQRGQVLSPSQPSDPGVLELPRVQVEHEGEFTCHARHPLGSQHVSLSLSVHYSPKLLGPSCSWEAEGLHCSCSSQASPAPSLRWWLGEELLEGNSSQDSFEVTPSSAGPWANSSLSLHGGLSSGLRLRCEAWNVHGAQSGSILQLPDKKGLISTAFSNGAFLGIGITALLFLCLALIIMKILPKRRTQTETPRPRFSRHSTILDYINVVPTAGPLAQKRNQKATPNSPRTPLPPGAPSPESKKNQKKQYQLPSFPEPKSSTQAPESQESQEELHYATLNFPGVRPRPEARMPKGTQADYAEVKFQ


What was measured:
[1] = molecular target: T1, human Siglec-10 expressed on CHO cells; experiment: flow cytometry on CHO transfectants, antibodies at 8 ug/ml
Procedure: (§1) Cells expressing Siglec-3, -5, -6, -7, -8, -9, -11 and -12 were generated using the amino acid sequences and Genbank references for Siglec polypeptides shown below in Table 2. Anti-Siglec-10 antibodies are tested by flow cytometry for binding to the cells. Binding of antibodies on human Siglec-10 was tested by flow cytometry on CHO cells transfected with human Siglec-10, human Siglec-7 or human Siglec-11. Cells were incubated 1h in Staining Buffer (SB) with primary antibodies at 8 ug/ml, then were washed three times with SB. Secondary Goat F(ab′)2 Anti-Human IgG (Fc) PE (Beckman Coulter) was incubated for 30 min at 4° C., cells were washed twice with SB. […] The 6 antibodies bound human Siglec-10 CHO transfectants with high differential in binding affinity over the control Siglec-7 or Siglec-11 CHO transfectants (no or only low residual binding to Siglec-7 or Siglec-11). […] The EC₅₀ as determined by flow cytometry for binding for S10-A antibody to Siglec-10 expressing CHO cells was 0.1 μg/ml.

[2] = molecular target: T2, human Siglec-7 expressed on CHO cells (human, UniProt Q9Y286 19-467); experiment: flow cytometry on CHO transfectants
T2 construct: NCBI NP_055200.1 is printed; also called Siglec-7 CHO transfectants
T2 sequence (Q9Y286 19-467): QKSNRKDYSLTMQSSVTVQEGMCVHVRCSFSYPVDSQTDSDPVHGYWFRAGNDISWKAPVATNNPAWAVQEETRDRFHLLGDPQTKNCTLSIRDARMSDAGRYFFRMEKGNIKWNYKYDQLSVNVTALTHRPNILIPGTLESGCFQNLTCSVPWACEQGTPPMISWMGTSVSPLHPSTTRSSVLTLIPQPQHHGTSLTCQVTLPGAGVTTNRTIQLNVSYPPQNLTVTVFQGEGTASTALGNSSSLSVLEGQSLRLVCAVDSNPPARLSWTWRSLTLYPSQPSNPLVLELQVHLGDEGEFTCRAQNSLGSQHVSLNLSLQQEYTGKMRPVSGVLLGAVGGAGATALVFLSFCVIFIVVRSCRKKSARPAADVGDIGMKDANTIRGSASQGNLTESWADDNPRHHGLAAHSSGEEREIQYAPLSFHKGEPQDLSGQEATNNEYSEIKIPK
Procedure: as §1

[3] = molecular target: T1, human Siglec-10 expressed on CHO cells; experiment: flow cytometry on Siglec-10 expressing CHO cells

binding result [1] | binding result [2] | EC50 [3] [µg/mL] | Binder
binds | no binding (tested: 8 ug/ml) |  | antibody S10-B (antibody, human IgG1, V domains shown, also called CHS2-S10-B) VH: QVQLKESGPGLVAPSQSLSITCTVSGFSLTDYDVNWVRQPPGKGLEWLGMIWGDGITDYNSALKSRLSISKDNSKSQVFLEMNSLQTDDTARYYCARGGIYYFGNTYGYWFFDVWGAGTTVTVSS VL: DIVMTQSPSSLAVSTGEKVTMSCKSSQSLLNSRTRKNYLAWYQQKPGQSPKLLIYWASTRESGVPDRFTGSGSGTDFTLTISSVQAEDLAVYYCKQSYNLRTFGGGTKLEIKR
binds | no binding (tested: 8 ug/ml) |  | antibody S10-C (antibody, human IgG1, V domains shown, also called CHS2-S10-C) VH: QVQLKESGPGLVAPSQSLSITCTVSGFSLTDYDVNWVRQPPGKGLEWLGMIWGDGITDYNSALKSRLSISKDNSKSQVFLEMNSLQTDDTARYYCARGGIYYFGNTYGYWFFDVWGAGTTVTVSS VL: EILLTQSPSSLAVSTGEKVTMSCKSSQSLLNSRTRKNYLAWYQQKPGQSPKLLIYWASTRESGVPDRFTGSGSGTDFTLTISSVQAEDLAVYYCKQSYNLRTFGGGTKLEIKR
 | no binding (tested: 8 ug/ml) | 0.1 | antibody S10-A (antibody, human IgG1, V domains shown, also called CHS2-S10-A) VH: QIQLQQSGAELEKPGASVKMSCKASGYTFTSYWMHWVKQRPGQGLEWIGYINPDTDSTEYNQKFRDKATLTADKSSSTAYMQLSSLTSEDSAVYYCARPYYRYAGYAMDYWGQGTSVTVSS VL: DIKMTQSPSSMYASLGERVTITCKASQDINSYLSWFQQKPGKSPKTLIYRANRLVDGVPSRFSGSGSGQVYSLTISSLEYEDLGIYYCLQYDEFPWTFGGGTKLEIKR
